Here are results for three molecules from US6509445 (NISSIN FOOD PRODUCTS, dated 2003).

To fix the notation:
B1: chimeric protein ATFHI (other)
chain: MSNELHQVPSNCDCLNGGTCVSNKYFSNIHWCNCPKKFGGQHCEIDKSKTCYEGNGHFYRGKASTDTMGRPCLPWNSATVLQQTYHAHRSDALQLGLGKHNYCRNPDNRRRPWCYVQVGLKPLVQECMVHDCADGTVAACNLPIVRGPCRAFIQLWAFDAVKGKCVLFPYGGCQGNGNKFYSEKECREYCGVPG
B2: chimeric protein ATFHI-ML (other)
chain: MSNELHQVPSNCDCLNGGTCVSNKYFSNIHWCNCPKKFGGQHCEIDKSKTCYEGNGHFYRGKASTDTMGRPCLPWNSATVLQQTYHAHRSDALQLGLGKHNYCRNPDNRRRPWCYVQVGLKPLVQECMVHDCADGKKPSSPPEELKFQGTVAACNLPIVRGPCRAFIQLWAFDAVKGKCVLFPYGGCQGNGNKFYSEKECREYCGVPG
B3: chimeric protein ATFHI-CL (other)
chain: MSNELHQVPSNCDCLNGGTCVSNKYFSNIHWCNCPKKFGGQHCEIDKSKTCYEGNGHFYRGKASTDTMGRPCLPWNSATVLQQTYHAHRSDALQLGLGKHNYCRNPDNRRRPWCYVQVGLKPLVQECMVHDCADGTVAACNLPIVRGPCRAFIQLWAFDAVKGKCVLFPYGGCQGNGNKFYSEKECREYCGVPGDGDEELL

Sequence of urokinase receptor (uPAR) (Q03405 23-305): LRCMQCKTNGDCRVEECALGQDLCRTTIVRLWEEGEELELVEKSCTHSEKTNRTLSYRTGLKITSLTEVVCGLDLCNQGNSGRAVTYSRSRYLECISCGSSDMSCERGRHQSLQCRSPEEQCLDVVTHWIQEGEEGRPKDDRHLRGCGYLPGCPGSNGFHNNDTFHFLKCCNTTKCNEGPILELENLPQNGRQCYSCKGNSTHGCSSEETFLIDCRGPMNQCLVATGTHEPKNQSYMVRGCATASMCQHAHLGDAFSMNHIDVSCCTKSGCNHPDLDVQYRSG

This assay concerns the target urokinase receptor (uPAR) (human, UniProt Q03405 23-305). Kind of assay: cell-based or functional assay.
With B1, the “Invasion inhibitory effect ID50 (nM), A375 cells” value came out at 50 nM; the “Invasion inhibitory effect ID50 (nM), DU-145 cells” value turned out to be 0.5 nM; the “Invasion inhibitory effect ID50 (nM), GE0 cells” value stood at 110 nM; the “Invasion inhibitory effect ID50 (nM), H0C-I cells” value amounted to 10 nM. The “Invasion inhibitory effect ID50 (nM), MDA-MB-435 cells” value is 3.5 nM; the “Invasion inhibitory effect ID50 (nM), PC-3 cells” value was found to be 20 nM; the “Invasion inhibitory effect ID50 (nM), SMT-ccl cells” value was 1.2 nM.
On to B2, for which the “Invasion inhibitory effect ID50 (nM), A375 cells” value stood at 120 nM; the “Invasion inhibitory effect ID50 (nM), DU-145 cells” value amounted to 2.9 nM; the “Invasion inhibitory effect ID50 (nM), GE0 cells” value was found to be 20 nM; the “Invasion inhibitory effect ID50 (nM), H0C-I cells” value was determined as 50 nM. The “Invasion inhibitory effect ID50 (nM), MDA-MB-435 cells” value turned out to be 5.6 nM; the “Invasion inhibitory effect ID50 (nM), PC-3 cells” value was 50 nM; the “Invasion inhibitory effect ID50 (nM), SMT-ccl cells” value was found to be 10 nM.
As for B3, the “Invasion inhibitory effect ID50 (nM), A375 cells” value was determined as 100 nM; the “Invasion inhibitory effect ID50 (nM), DU-145 cells” value was 5 nM; the “Invasion inhibitory effect ID50 (nM), GE0 cells” value amounted to 200 nM; the “Invasion inhibitory effect ID50 (nM), H0C-I cells” value was 20 nM. The “Invasion inhibitory effect ID50 (nM), MDA-MB-435 cells” value turned out to be 20 nM; the “Invasion inhibitory effect ID50 (nM), PC-3 cells” value amounted to 20 nM; the “Invasion inhibitory effect ID50 (nM), SMT-ccl cells” value stood at 1 nM.
